Laboratory results published in the domain aggregation screens of Martell et al. (2025).

Test: soluble fraction after stress (log2 fold change); higher = more stays soluble; pooled small domains, quantitative proteomics
Details: stress: 75 degC
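Further: 20 min heating vs room temperature control held 20 min.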

Row | Sequence | soluble fraction (log2)
1 | HMDGTAKVAHMLVNELETFNRLKKHEIAYMLHIQPETLSRILNKLTRNGTIEIEKNSVVILNIQELKEIY | -1.95
2 | HMRNGGHTVYRNNGSLFIVVRDGDKLESVASEFRVSPKKLIKYNDLDIHSNVKTGDMIYIRPKA | -0.423
3 | HMPEVYPFEVAEDDAGKRLDVFLSEEIEEFTRSFIQKLIAGGLASVNRAPARASYRVKPRDLVELQVPE | -0.598
4 | HMEQETVTVPDLVGKDVVAAQAELHEMGLSGKPDGTGTTVVSQFPVAGARVLKHTNVILYTED | 0.296
5 | HMAGTPAIVKWFNPTKGFGFVTPKEAGSDALLHASVLAKRGKRWLQEGTLVEVLIEEGPKGLVVSELLTIE | -0.84
6 | HMSELADDPVYTALEKAADKAGLQLTVRILNDLADAVLKRGKKKLTAAQAGKVIARAESELAKSRID | 0.00292
7 | HMKFLHLADLHLGKRVNGFSMLEDQAYILRQILTILDDERPDGVLIAGDVYDKPVPPTEAVELLD | -0.859
8 | HMLSDHGLNDRQIMVIAGLMNGGTVTVRSIESQYGVSLNTARADVKMLVDAGLLTETGREVNMKVYSWSGK | -2.05
9 | HMPGVLEVDTGGVAAVAYVDGVEVGRVPGELQIAAGTKTLMLKADRYLDYVQSLEIDGLGKRQLLVATLQS | -0.0797
10 | HMQGEVVTNRSVIDMSRAGLSADIIRAKILRSDTNFDVTAKALIELKESGVPDDIIALMLERADS | 0.00604
11 | HMEYSKSIKRLREDKNLTVEELAKRLSLDVEEIQKAEDGEDVDQKTLEAIARYFGVQYDSLVEGTAKSK | -0.0335
12 | HMKTFSTRLIALREAIGVNQSELARRVGVTPQAVQKWESGANGPRGKRLEKLASELRSTVGYLVSGEGDG | -0.434
13 | HMGTPSAEELAFSAQKGNAVMRIMEIREKYIENGGQISDEERNEIERLIAIYYPKASIFDYLPMMG | -0.367
14 | HMETMSGTVKWFNTQKGYGFITGDDGAEYFAHQTQIKMDGFRTLDAGDIVEFDVRSEEKGLAAVNIVP | 0.781
15 | HMGMFNENLRFLRQKRQMSQQAFASILGIPRTTYSEYEKGNTEPNLKLLIRLSELLDVSLDNLISDDLTHN | -2.82
16 | HMLKQLGRQEGRQEGAVDALRTVLALQIEQRFGPLDPTVQALIVAADIDALQRALSRVAVVSDLGAVFPP | -0.875
17 | HMFMPGTIIKQFRELRNYSQDYVSRKMGISQNAYSKIENNITQLTVTHVKQLSSILDVPIVELLR | -3.71
18 | HMLDLSDFEVVRDLYLSEQIWNVGDLIIARSKKDDTYKAWEIIRKGTNYVTGIDESHKVEKIWLHDILI | -1.15
19 | HMDINEIILKVASEKKTFKTSDVLEALDNNYTKQHVSALISAMVKKGILVKAGSTAKSTYALPENASLL | -1.26
20 | HMTDSDTQDIDVGELRVGHFVFLDLSWIRHPFPLSSFKIQSAEQIKTIRSLGLRRIRYSPGRSGP | -1.31
21 | HMTTLAADFNSDGRVDIGDLSILAGNWGKSRTNEVDFNKYGDADYNGRIDIIDLSILATQFGQTDNSN | 0.321
22 | HMQISSSEVLEKVVDEILSANPKSIEDYKNGKLQAAGFLMGQVMKATKGQANPAVAKELIEAKLKD | 0.461
23 | HMALENTDLYAHLRLSHTASVPEIQAALSARVKHMPLQTWLLARKWLLHPRLRERYDGMWSVRFGA | -2.87
24 | HMNERTKIPLRKIEIGQAVYVDTLEKVGTVIDIQGKQFKVDLAGLPITVAARNLFYPLPQEAKP | -0.736
25 | HMSRTLLVYVTGAVRQPGVYELPEGSRFFDAVKAAGDVLPYAVMEDINMAEPLSDGMKIHIPLDPEQ | -0.687
26 | HMRTMFGQRLRLARKRAGLSMQALADRVTPSVSAQAISKYEADQMMPSSSVLVGLGKALGVSLDFLVGGQ | -1.41

Row | Sequence | soluble fraction (log2)
27 | HMPDLQKAIDDLLQVVDKRLNTSFESILNEVNSEKEAVAFFLALLEAVRWGFVKASQSDEGIKIEK | 0.211
28 | HMNSKQELAYQTIRARIVDGSYGPGYRIVIDEVARELGVSPIPVREAVRRLEAEGLITYTRHAGARVVA | -0.219
29 | HMVKNTIHVDLKGEVNKPGVYEVEEGTIVNDLITLANGFTKNAYQDNINLSKKLTDEMVIVVSKKGS | 0.476
30 | HMQTPVTVGDTMPNLIGTPKRLLLELLNRTDITVKLTGDGYVTAQSPAAGTPIAKGMIIELSL | -2.17
31 | HMIIVMRKGATEAQVNDIVERVRAAGFGVHLSQGEERTIIGAIGGDRAVLADLNLEAAPGVERVTPIS | -0.176
32 | HMGYDVAEVKFRLIKLLRDSKIGISGVEISERLGINRVTMTKYLNIFSAEGVIGEKNIGNVNLWFVYEGIE | -1.62
33 | HMLDYQLQVFKDTLEANRKHRGQKIVFIHGKGEGVLRRALIHALNYQYKKFTYQDASFREYGYGATQVTI | -0.312
34 | HMSLTEDELFHALTIYANREGINIGATELKYLLTHYARNLGKLIELINQVSQAATMQKKPITIPLIKHS | -0.411
35 | HMTDAEQHEALLFKQVVDGLPQTLRDTFVLSRHAGMTYAEISAHTGTPIKTVESRMAKALELIAQRMR | -1.27
36 | HMPHFGVVLQMDDWKTLRDRLEARDDIDWVMKPNLRFEGQPGEQATLFIRDPSGNALEFKGFADLSQVF | -0.116
37 | HMEDPRVTEIKNLQQDLAKKFKPTQGPASASDAVERVTAITTVMTKVAALPEDLRSEAMQPGKKM | -0.327
38 | HMEFSYMDQGLERYRAFLETHGHGNVPESYHELKLVNFVAHIRKLYRMNLLSEERRRALDEAGFVF | -2.5
39 | HMGDVPESLVEKAGHSINAKIISAWGMTETGASTMTRPQDDPERAIYSDGVVLPLMDVRVVNDAGLA | -0.167
40 | HMESIEAGTFELDNKTSIDISEDEANLLNKMFEELTETNSKDMYGVMVADEAGFNEILEFAKENL | 0.00321
41 | HMQANLPFSELLADVDRGLISDVTIKGDQVSGHYTDGRTFNTFIPPEADLVRRLTEKNVRIAAVPD | -0.113
42 | HMDAPKTGSLVVSKAVNYGSWSGFTFRLHGTSDKGNSVDVTATTGSDGKAYFKDIEIGTYTLEEVN | -0.406
43 | HMDEFAGSAKPLADGAAPAGYDVKGNKDSMKYHEPGGRWYDATVAEVWFKTAADAEAAGFVKAGA | 0.167
44 | HMSDFSNLNLLELNSSELDLLLRRASSQGLTQMDLLKMARSQGLSEADLIKVKGKIDTSESIKR | 0.076
45 | HMMVIMRANATEPQIANVVAYVEKNGLNAHLSRGAERTVIGVVGDIRRVSKETFELMDGVDSVMRIS | -0.631
46 | HMSLTYTGKFILNHNNIDQSSFNINIYLVNKQTIIQITKPFYGNVLNIKFNEENDLIISPKQFS | -0.369
47 | HMSVYIGVDQAKSIAAEHAGLSNSAVTFSKAKLENDDGMTVYEVEFFYQGTEYDYKIDASTGSILEYDLDR | -1.64
48 | HMKRIFEKKVVTESLNGLRLDKAAATLFADFSRNELGQWIKDEALLVNGKAKKVKEKVSEGDVLALDVELI | 0.203
49 | HMGSGLAAAEKIRKAHPEIKIVVATSLIDTQVLARAKAVGADSLWYKDGDEGTLMQVVRRTMAGDHIFP | -0.038
50 | HMDRPARDEAQSWLADVLADGPVPTAEIREEAEAAGLAWRTIQRARIALSVEPIRGDGRNAWLWQLPG | -1.49
51 | HMAAVAPPVLERIASDLATRFAGTLSPETVDRYVRESYHLLAERAGITRYLPSLTARFAGDRLDA | 0.0295
52 | HMQISDDSELIKIVDNILANSQKQIDDYHNGKTNLFGFFVGQVMKETKGKANPVKVNEILKDKL | -0.00828

Row | Sequence | soluble fraction (log2)
53 | HMFGNTGETSGTGVAFTRSPVDGENKIFGEFLVNAQGEDVVAGIRTPQPISEMEQAFPEVYSKFESVAEIL | 0.0261
54 | HMDVNHVIIDHKGNSIQAIIDSIDLDNVYYQSKIKKESEVIDIDKVYFIFNDFDRVYHYDWSYYENL | -0.166
55 | HMITDNEFLRIVSFLKQRYGIDMSQKKVIMNGRLENYLKSGGWSSFDEYMNDVEKDTSGDLEKTLVNFLTT | -1.38
56 | HMGMAGILDSARMASFIQEKLGYGGGQIRASVMGGHGDDMVPLPRYSTVAGVPLSDVLTQNEIDEMFAQ | -0.0337
57 | HMLKFPIGTHVGKKKPSANLSLPNKHGVVIGHGERRNAKGAIMRFYIVETTHSSRPEEWAPGITYPL | -2.72
58 | HMSKPIYSELLREIRSGDVKELTLIPQRREVLVEYSDGRKATVSILANDQQVLRTAESAGVPLTVK | -0.0278
59 | HMPGVTTQLHRLNGTEETYIIKRGDGVLEIDGEKSELQLGDAIIIPAGASQKISNIGDEDLE | -0.159
60 | HMISLPSYIREEATEVYNRLHDLGLEYTSLDVNDDSIPKGYVVRTVPEAGASVPAGQVVTVYVSLG | -0.829
61 | HMSNIQLAANLQRLRKDHHFTQTQFSKKLNISRQAYSNYETGKRIPDLDIIIRIANIYHISLENLL | -0.305
62 | HMTVLIDEQSSDGLLKITVTANTAVKSITIADELLEDKEQLEDYLILVLNKAIARANQVNQTELDAVAK | 0.0536
63 | HMESYDSEIKEVLDLAGKGRWEEAQTKADALREMAPNNSLVERLHGWVLQAAHQRREQALENDIRE | 0.432
64 | HMDAGLAEIIRSFEDNLGGFPPAAREDLLGWREIFTDDLILLAIKKAALAGVRKWSYVNGILKVWKNEGVR | -2.23
65 | HMAPAILTVQVKPDKIREIIGPGGKMIRMIQSETNTRVEVDDSGLVKIAAVSKEEGEAALKMVSDITME | 0.331
66 | HMRSVEVAAEPGMVLEDRQTGFVGAVVAVEKSGGTHLVVLEDRHGLRRGFPLGPGFWLEGRPVVLAPPP | -1.01
67 | HMNLEIGAIIKSLRAKHKYTQEQLSAFLGVTPQAVSRWEAGNGYPDIELLPAIARFFEVSTDELLGL | -2.2
68 | HMHPDHRTATVPDAAAGRRFDAVLAELFPQFSRSKLTTWIKSGEVLLNGEVPRPRDAVVGGETVSLNVVL | -0.554
69 | HMAVNQEFKNTINRIKYEYSLNQSQIADRLGVKKTYLSDMINGRVPYNETMNKKVNDVFPLPP | -0.169
70 | HMQYTTDEVRERVLSVLNQLLLRWIVREGKDMFNIQANAVEISEGIKGELNTELEKIGLAATGFQIDSV | -0.393
71 | HMVPFISVTPTSLSFAKGGESKTVDIEASGAFSVGKVPTGFNLEVVNGRITITADANTGAARNGSVEFILA | 0.222
72 | HMHQAADFAGFITFNKDGVEQFSFGKYKNQTVVSVLEKDPGYYSWIQNADFPLYTKKILTAIRLAM | -1.06
73 | HMKSSLAKNLETLMQERQISQTRLSKISGVSQSYIFKILNDQIKKPSLDTLEKLATALDSTVAQLNH | -0.433
74 | HMSNPPIRIGKKALHELLTTWLSLLSRDGVAYLVVQKNLGADSLTAWLRDQGFPSEKIASKKGFRIIEVH | -0.315
75 | HMNGLDSVLRNWARQTLASGGENLLGDLTDHVTRLIISEALIMTGGNRTRAAELLGLSRPTLLAKMDKLNL | -2.92
76 | HMSDPHEELMSRIARDLSIPLTRVVAEMNTIISKEFGGHIRPEGAVVILAKRSGVEFSDLLPALRENILK | -1.92
